± gives the standard deviation.
Assay: collision cross section of modified peptide (TIMS, N2, iRT-aligned); higher = larger / more extended gas-phase ion
How it was run: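 Collision cross section was derived from the Mason-Schamp equation. Each value averages 1–3 technical replicates of the most abundant feature per charge state, measured on a timsTOF Pro/HT in dda-PASEF mode (nitrogen, ~2.4 mbar) after a 120-min nanoflow C18 gradient at 60 °C. Synthetic peptide pools (~100 fmol/µL in 2% acetonitrile/0.1% formic acid, iRT standard spiked 1:40) were identified with MaxQuant, and 1/K0 was calibrated with three reference ions and aligned run-wise to the median iRT peptide deviation.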

[1] = charge state: 3, modification: Methyl (K)
[2] = charge state: 3, modification: Propionyl
[3] = charge state: 2, modification: Succinyl
[4] = charge state: 3, modification: Succinyl
[5] = charge state: 3, modification: Trimethyl (K)
[6] = charge state: 2, modification: hydroxyisobutyryl
[7] = charge state: 3, modification: hydroxyisobutyryl
[8] = charge state: 2, modification: Citrullination (R)
[9] = charge state: 2, modification: Methyl (R)
[10] = charge state: 3, modification: Methyl (R)
[11] = charge state: 2, modification: Acetyl (K)
[12] = charge state: 3, modification: Acetyl (K)
[13] = charge state: 2, modification: Biotin
[14] = charge state: 3, modification: Biotin
[15] = charge state: 2, modification: Butyryl
[16] = charge state: 3, modification: Butyryl
[17] = charge state: 2, modification: Crotonyl
[18] = charge state: 3, modification: Crotonyl
[19] = charge state: 2, modification: Formyl
[20] = charge state: 2, modification: Glutarylation
[21] = charge state: 2, modification: GlyGly (K)
[22] = charge state: 3, modification: GlyGly (K)
[23] = charge state: 2, modification: Malonyl
[24] = charge state: 2, modification: Nitro (Y)
[25] = charge state: 2, modification: Phospho (Y)
[26] = charge state: 3, modification: Citrullination (R)
[27] = charge state: 2, modification: Hydroxyproline
[28] = charge state: 3, modification: Hydroxyproline

PANEKATDDYHYEK [_PANEK(Malonyl)ATDDYHYEK_]
collision cross section (charge state: 3, modification: Malonyl): 498.89 ± 1.6 Å²

PANEKATDDYHYEK [_PANEK(Methyl (K))ATDDYHYEK_]
collision cross section [1]: 492.44 ± 0.72 Å²

PANEKATDDYHYEK [_PANEK(Propionyl)ATDDYHYEK_]
collision cross section [2]: 507.47 ± 0.5 Å²

PANEKATDDYHYEK [_PANEK(Succinyl)ATDDYHYEK_]
collision cross section [3]: 446.9 ± 1.1 Å²
collision cross section [4]: 500.9 ± 1.6 Å²

PANEKATDDYHYEK [_PANEK(Trimethyl (K))ATDDYHYEK_]
collision cross section [5]: 499.05 Å²

PANEKATDDYHYEK [_PANEK(hydroxyisobutyryl)ATDDYHYEK_]
collision cross section [6]: 446.18 ± 0.51 Å²
collision cross section [7]: 509.04 ± 1.9 Å²

PARGLYSR [_PAR(Citrullination (R))GLYSR_]
collision cross section [8]: 324.52 ± 2.2 Å²

PARGLYSR [_PAR(Methyl (R))GLYSR_]
collision cross section [9]: 338.81 ± 0.66 Å²
collision cross section [10]: 407.19 Å²

PASGAGAGAGAGKR [_PASGAGAGAGAGK(Acetyl (K))R_]
collision cross section [11]: 357.24 ± 1 Å²
collision cross section [12]: 456.58 ± 2.9 Å²

PASGAGAGAGAGKR [_PASGAGAGAGAGK(Biotin)R_]
collision cross section [13]: 377.47 Å²
collision cross section [14]: 490.64 Å²

PASGAGAGAGAGKR [_PASGAGAGAGAGK(Butyryl)R_]
collision cross section [15]: 358.98 ± 1.3 Å²
collision cross section [16]: 461.52 ± 2.9 Å²

PASGAGAGAGAGKR [_PASGAGAGAGAGK(Crotonyl)R_]
collision cross section [17]: 364.92 ± 9.9 Å²
collision cross section [18]: 464.44 ± 2.8 Å²

PASGAGAGAGAGKR [_PASGAGAGAGAGK(Dimethyl (K))R_]
collision cross section (charge state: 2, modification: Dimethyl (K)): 385.92 ± 1.6 Å²
collision cross section (charge state: 3, modification: Dimethyl (K)): 457.59 ± 1.6 Å²

PASGAGAGAGAGKR [_PASGAGAGAGAGK(Formyl)R_]
collision cross section [19]: 349.96 ± 1.4 Å²
collision cross section (charge state: 3, modification: Formyl): 453.33 ± 1.2 Å²

PASGAGAGAGAGKR [_PASGAGAGAGAGK(Gluratylation)R_]
collision cross section [20]: 357.87 ± 1.2 Å²
collision cross section (charge state: 3, modification: Glutarylation): 467.6 ± 2 Å²

PASGAGAGAGAGKR [_PASGAGAGAGAGK(GlyGly (K))R_]
collision cross section [21]: 395.09 ± 1.4 Å²
collision cross section [22]: 472.77 ± 1.1 Å²

PASGAGAGAGAGKR [_PASGAGAGAGAGK(Malonyl)R_]
collision cross section [23]: 352.42 ± 0.026 Å²

PASGAGAGAGAGKR [_PASGAGAGAGAGK(Methyl (K))R_]
collision cross section (charge state: 2, modification: Methyl (K)): 381.78 ± 0.91 Å²
collision cross section [1]: 459.46 ± 3.9 Å²

PASGAGAGAGAGKR [_PASGAGAGAGAGK(Propionyl)R_]
collision cross section (charge state: 2, modification: Propionyl): 359.78 ± 0.65 Å²
collision cross section [2]: 464.2 ± 0.076 Å²

PASGAGAGAGAGKR [_PASGAGAGAGAGK(Succinyl)R_]
collision cross section [3]: 354.83 ± 0.23 Å²
collision cross section [4]: 462.42 ± 2 Å²

PASGAGAGAGAGKR [_PASGAGAGAGAGK(Trimethyl (K))R_]
collision cross section (charge state: 2, modification: Trimethyl (K)): 392.96 ± 2.2 Å²
collision cross section [5]: 465.02 ± 1.8 Å²

PASGAGAGAGAGKR [_PASGAGAGAGAGK(hydroxyisobutyryl)R_]
collision cross section [6]: 363.2 ± 0.9 Å²
collision cross section [7]: 470.09 ± 2.8 Å²

PATSYVR [_PATSY(Nitro (Y))VR_]
collision cross section [24]: 318.95 ± 2.2 Å²

PATSYVR [_PATSY(Phospho (Y))VR_]
collision cross section [25]: 328.8 ± 0.068 Å²

PAVTAAPK [_PAVT(HexNAc (ST))AAPK_]
collision cross section (charge state: 2, modification: HexNAc (ST)): 333.39 ± 1 Å²

PDTQYTGR [_PDTQY(Nitro (Y))TGR_]
collision cross section [24]: 325.57 ± 0.55 Å²

PDTQYTGR [_PDTQY(Phospho (Y))TGR_]
collision cross section [25]: 335.56 ± 0.067 Å²

PGGEGPQCEKTTDVK [_PGGEGPQCEK(Acetyl (K))TTDVK_]
collision cross section [11]: 415.43 ± 2 Å²

PGGEGPQCEKTTDVK [_PGGEGPQCEK(Butyryl)TTDVK_]
collision cross section [15]: 421.37 ± 0.77 Å²

PGGEGPQCEKTTDVK [_PGGEGPQCEK(Formyl)TTDVK_]
collision cross section [19]: 413.32 Å²

PGGEGPQCEKTTDVK [_PGGEGPQCEK(Gluratylation)TTDVK_]
collision cross section [20]: 428.07 ± 0.56 Å²

PGGEGPQCEKTTDVK [_PGGEGPQCEK(GlyGly (K))TTDVK_]
collision cross section [21]: 422.06 ± 1.9 Å²
collision cross section [22]: 492.2 ± 3 Å²

PGGEGPQCEKTTDVK [_PGGEGPQCEK(Malonyl)TTDVK_]
collision cross section [23]: 427.2 Å²

PGGEGPQCEKTTDVK [_PGGEGPQCEK(Methyl (K))TTDVK_]
collision cross section [1]: 460.64 Å²

PGGEGPQCEKTTDVK [_PGGEGPQCEK(Succinyl)TTDVK_]
collision cross section [3]: 437.41 ± 1.1 Å²

PGGEGPQCEKTTDVK [_PGGEGPQCEK(hydroxyisobutyryl)TTDVK_]
collision cross section [6]: 425.58 ± 0.3 Å²
collision cross section [7]: 464.88 Å²

PGGLGSSSLYGLGASRPR [_PGGLGSSSLYGLGASR(Citrullination (R))PR_]
collision cross section [8]: 438.36 ± 0.2 Å²
collision cross section [26]: 521.04 ± 1.9 Å²

PGLKGEQGEPGAPGIR [_PGLKGEQGEPGAP(Hydroxyproline)GIR_]
collision cross section [27]: 410.74 ± 0.55 Å²
collision cross section [28]: 508.4 ± 1.3 Å²

PGLQGPR [_P(Hydroxyproline)GLQGPR_]
collision cross section [27]: 288.12 ± 3.8 Å²

PGNSGIR [_P(Hydroxyproline)GNSGIR_]
collision cross section [27]: 280.46 ± 3.1 Å²

PGPKGEAGPTGPQGEPGVR [_P(Hydroxyproline)GPKGEAGPTGPQGEPGVR_]
collision cross section [27]: 432.55 ± 0.34 Å²
collision cross section [28]: 487.03 ± 3.2 Å²

PGPQPSAETTR [_P(Hydroxyproline)GPQPSAETTR_]
collision cross section [28]: 412.85 Å²

PGPQPSAETTR [_PGP(Hydroxyproline)QPSAETTR_]
collision cross section [27]: 345.87 ± 0.25 Å²

PGPRGQR [_P(Hydroxyproline)GPRGQR_]
collision cross section [27]: 294.67 Å²

PGPVGPPGSGGLK [_PGPVGPP(Hydroxyproline)GSGGLK_]
collision cross section [27]: 349.24 ± 3.9 Å²

PGSPGPPGSPGPR [_PGSP(Hydroxyproline)GPPGSPGPR_]
collision cross section [28]: 422.04 ± 4.8 Å²

PGSPGPPGSPGPR [_PGSPGPPGSP(Hydroxyproline)GPR_]
collision cross section [27]: 352.39 ± 1.1 Å²

PGTPAGYGRGR [_PGTPAGYGR(Citrullination (R))GR_]
collision cross section [8]: 345.81 ± 4.8 Å²
collision cross section [26]: 431.14 Å²

PGTPAGYGRGR [_PGTPAGYGR(Methyl (R))GR_]
collision cross section [9]: 362.47 ± 6.7 Å²
collision cross section [10]: 449.19 ± 8.3 Å²

PLPVALQTRLAK [_PLPVALQTR(Citrullination (R))LAK_]
collision cross section [8]: 391.36 ± 0.54 Å²

PLPVALQTRLAK [_PLPVALQTR(Methyl (R))LAK_]
collision cross section [9]: 400.79 ± 0.32 Å²
collision cross section [10]: 474 ± 2.6 Å²

PLRAASPFR [_PLR(Citrullination (R))AASPFR_]
collision cross section [8]: 334.99 ± 0.26 Å²
collision cross section [26]: 442.41 Å²

PLRAASPFR [_PLR(Methyl (R))AASPFR_]
collision cross section [9]: 351.73 ± 0.9 Å²
collision cross section [10]: 447.48 ± 3.2 Å²

PPGFSPFR [_PP(Hydroxyproline)GFSPFR_]
collision cross section [27]: 331.47 ± 1.3 Å²

PPGFSPFRSSR [_PP(Hydroxyproline)GFSPFRSSR_]
collision cross section [27]: 367.16 Å²
collision cross section [28]: 458.87 ± 0.35 Å²

PRGVISTPVIR [_PR(Citrullination (R))GVISTPVIR_]
collision cross section [8]: 367.21 ± 0.24 Å²
collision cross section [26]: 478.04 Å²

PRGVISTPVIR [_PR(Methyl (R))GVISTPVIR_]
collision cross section [9]: 373.92 Å²
collision cross section [10]: 447.15 ± 2.7 Å²

PRLPATGTFK [_PR(Citrullination (R))LPATGTFK_]
collision cross section [8]: 351.67 ± 5.4 Å²

PRLPATGTFK [_PR(Methyl (R))LPATGTFK_]
collision cross section [9]: 353.59 ± 0.84 Å²
collision cross section [10]: 458.58 ± 3 Å²

PRTPTAPAVNLAGAR [_PR(Citrullination (R))TPTAPAVNLAGAR_]
collision cross section [8]: 411.43 ± 0.98 Å²
collision cross section [26]: 471.47 ± 0.76 Å²

PRTPTAPAVNLAGAR [_PR(Methyl (R))TPTAPAVNLAGAR_]
collision cross section [10]: 486.43 ± 2.3 Å²

PSIHGGSGGRGVSVSSAR [_PSIHGGSGGR(Citrullination (R))GVSVSSAR_]
collision cross section [26]: 486.3 ± 5 Å²

PSVGSQSNQAGQGKR [_PSVGSQSNQAGQGK(Acetyl (K))R_]
collision cross section [11]: 409.31 ± 3.1 Å²
collision cross section [12]: 465.77 ± 2.3 Å²

PSVGSQSNQAGQGKR [_PSVGSQSNQAGQGK(Biotin)R_]
collision cross section [13]: 421.78 ± 0.67 Å²
collision cross section [14]: 480.61 ± 0.34 Å²

PSVGSQSNQAGQGKR [_PSVGSQSNQAGQGK(Butyryl)R_]
collision cross section [15]: 416.92 ± 1.1 Å²
collision cross section [16]: 475.14 ± 7.3 Å²

PSVGSQSNQAGQGKR [_PSVGSQSNQAGQGK(Crotonyl)R_]
collision cross section [17]: 420.02 ± 0.41 Å²
collision cross section [18]: 468.33 ± 1.6 Å²
